The results in this text go back to the supplement of paper PMC12455559.

± gives the standard deviation of the averaged measurements.

A short description of series [1]: melting temperature (DSF); higher = more thermostable. The gist of the method:
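On a Bio-Rad CFX96, fluorescence of 45 μL enzyme (0 to 0.3 mg/mL) mixed with 5 μL 5X Sypro Orange in sealed PCR plates was followed from 25 °C through 250 cycles of 0.3 °C, with a 0.3 °C/s ramp. The enzymes had been expressed in E. coli C41(DE3), taken up on nickel beads and released by SUMO protease. Melting temperature, measured by differential scanning fluorimetry, is the value given.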

A short description of series [2]: purified protein yield per well (BCA); higher = higher soluble expression. A digest of the protocol:
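The measured quantity is purified protein yield per well, determined with the Pierce Rapid Gold BCA kit. Anything below 25 ug (0.1 mg/mL) lies under the detection threshold. Enzymes were expressed in E. coli C41(DE3) in 2 mL autoinduction cultures with 100 µg/mL kanamycin at 37 °C for 2 h, then 18 °C for 40 h, and purified on an OT-2 robot using Ni-charged magnetic beads and SUMO protease release.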

Series [3] can be described thus: PET hydrolysis, aromatic products released after 48 h (umol product/mg enzyme); higher = more PET depolymerization activity. A digest of the protocol: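 PET hydrolysis activity was taken as the aromatic product in the supernatant and expressed per mg enzyme. This product was measured by absorbance at 260 and 280 nm against buffer blanks. Each reaction held 5 μg (50 μL) of tagless, SUMO-cleaved candidate enzyme purified on nickel beads, plus 3.5 mg amorphous PET film or crystalline PET powder in 450 μL buffer: 50 mM NaCitrate (pH 4.5, 5.5), 50 mM NaPhosphate (pH 6.5, 7.5) or glycine (pH 8.5). Plates were sealed and left 48 h at 40 or 60 °C without shaking.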

[4] abbreviates: substrate: cryPow, 40 °C, pH 4.5.
Setting [5] is: substrate: cryPow, 40 °C, pH 5.5.
[6] abbreviates: substrate: cryPow, 40 °C, pH 6.5.
Setting [7] is: substrate: cryPow, 40 °C, pH 7.5.
Setting [8] is: substrate: aFilm, 40 °C, pH 4.5.
The mark [9] stands for this setting: substrate: aFilm, 40 °C, pH 5.5.
Setting [10] is: substrate: aFilm, 40 °C, pH 6.5.
[11] abbreviates: substrate: aFilm, 40 °C, pH 7.5.
[12] abbreviates: substrate: aFilm, 60 °C, pH 4.5.
Setting [13] is: substrate: aFilm, 60 °C, pH 5.5.
Where [14] appears, read: substrate: aFilm, 60 °C, pH 6.5.
The mark [15] stands for this setting: substrate: aFilm, 60 °C, pH 7.5.
Setting [16] is: substrate: cryPow, 60 °C, pH 4.5.
Setting [17] is: substrate: cryPow, 60 °C, pH 5.5.
The mark [18] stands for this setting: substrate: cryPow, 60 °C, pH 6.5.
[19] abbreviates: substrate: cryPow, 60 °C, pH 7.5.

“ADLLSQGRPATASSTEKESTPASAAVDGDTGTRWSSTFGDPQWLQVDLGATATLSRIVLRWEAAYARTFRIQTSDDGTAWTTVHSTTTGAGGVQTLDVNGTGRYVRLHGTQRGTLYGYSLWEFQVYGSGDGTPPDGTIPDPTTASLEAAAGPLPTAAYTVPSPSGYGSGTVTYPTSGGAYPGVVLMPGYQGTQENLRWLAPRLASWGFVVLNVGTTTLLDDPASRGRQISAAGIQLLALGGTSGNPLSGKLDGTLGAVGHSMGGGGVMAALRDDPRFRAGVPTAPYYPNMNFSQVTDPTFFLTCQSDPVAHGNTYAVPWYTTMSRAEKLYVEVPGDHLCPMTGYGDKARQGKWIVSFLSLWLRADTRFGPFLCGPAREADKNNTALVTRWMDTCPF [TEP160]” registered a melting temperature in series [1] of 68.5 C. Besides, the “purified protein yield per well” value in series [2] was determined as 31 µg. The PET hydrolysis in series [3] (setting [4]), in series [3] (setting [5]), in series [3] (setting [6]) and in series [3] (setting [7]) was under 3 throughout.

For the sequence “ADNPYERGPDPTRTSVATERGPFANTSVSVPSGHGFNGGRIYYPTDTSQGTFGAIAISPGYTALFSVELAWMGPWLASHGFVVIGIETNSTNDFDTARGTQLLAALDYLTQQSPVRDRIDPSRLAVSGHSMGGGGALSAAMRRSSLKAVVGITPFSPSSNLASNQVPTMVISGQADTVVTPSYALDLYNSLPASTESVYLEVAGGDHGFMVGRSNPVLIRTMLPFLKMFVDNDTRYSQFLCPLMDNSGVVTYRSTCPLLPTPPTTPPPTGDPTSPPPSTDPTTPPPSGSTGQIVGTQSNRCIDVPNSSRNNGTRVQLYDCHGQANQTWTYNSTTKQLRVYGDMCLDAAGSGNGAAVQIYNCHGQTNQQWNLNSNGTISGVQSNRCLDVWSTNNGAQIQLYDCHGQTNQQFRIRS [ESM173]”, in series [1], the melting temperature is 61.6 C. For the same sequence, the “purified protein yield per well” value in series [2] was determined as 199 µg. Also, the PET hydrolysis in series [3] (setting [8]), in series [3] (setting [9]), in series [3] (setting [10]), in series [3] (setting [11]), in series [3] (setting [12]) and in series [3] (setting [13]) was under 3 each time. Moreover, the PET hydrolysis was under 3 in series [3] (setting [14]); under 3 in series [3] (setting [15]); 3.5 ± 0.71 in series [3] (setting [4]); 11.5 ± 0.71 in series [3] (setting [5]); 20.5 ± 0.71 in series [3] (setting [6]); 11 in series [3] (setting [7]). In addition, the PET hydrolysis in series [3] (setting [16]), in series [3] (setting [17]), in series [3] (setting [18]) and in series [3] (setting [19]) was under 3 throughout.

Take “ADNPYQRGPDPTRASVASENGPFANTSVAVPTGYGFNGGRIYYPTDTSQGTFGAIAISPGYTALFSVELAWMGPWLASHGFVVIGIETNSRNDFDTARGTQLLAALDYLTQQSPVRDRVDSSRLAVAGHSMGGGGALSAAMRRSSLKAAVGIAPYSPSSNLATDRVPTMVFSGQADTVVTPSYATGLYNSLPSTTESAYLEVAGADHGFMVGRSNPVLIRTMLPFLKIFIDNDARYSQFLCPLLDTSGVVTYRSTCPLLPTPPTSPTATPTTTPTGPSPTSPPGAASQLVGAQSGRCVDVPNASRANGTRVQLWDCNRQSNQSWTYTSTKQLRVYGDMCLDAAGTGNGAAVQIYGCHGQANQQWNVNSNGTVSNVQSGRCLDVWSTANGAQIQLYDCHGQTNQRFNLTPLA [TEP111]”: the melting temperature in series [1] was 63.1 C. In addition, the “purified protein yield per well” value in series [2] came to 245 µg. In addition, the PET hydrolysis in series [3] (setting [8]), in series [3] (setting [9]), in series [3] (setting [10]), in series [3] (setting [11]), in series [3] (setting [12]) and in series [3] (setting [13]) was under 3 throughout. Moreover, the PET hydrolysis is under 3 in series [3] (setting [14]); under 3 in series [3] (setting [15]); 13 ± 1.4 in series [3] (setting [4]); 17 in series [3] (setting [5]); 15.5 ± 9.2 in series [3] (setting [6]); 8.5 ± 12 in series [3] (setting [7]). Moreover, the PET hydrolysis in series [3] (setting [16]) is under 3; in series [3] (setting [17]) it was 5; in series [3] (setting [18]), 4.5 ± 0.71; in series [3] (setting [19]), under 3.

In series [1], “ADNPHQRGPNPTQASITANRGTFATAETSVGGGNGFGAAKIYYPTDTSQGTFGAIAVVPGYTATWAAEGAWMGHWLASFGFVVIGIDTLNRNDFDVARGTQLLAALDYLTQRSSVRTRVDPNRLAVMGHSMGGGGTISAALRWPTLKAAIGLAPYSPSQTTSGLQVPTMLLAGQNDGTSTPASIISLYNNIPASTEKSYLELAGAGHGFPTSNNSVMTRKVIPWMKIFIDQDARYTQFLCPLQDWTGIRSYRSSCPLLPGATFSLAGSASGKCVDVPGRVQTNGTGLIIWTCNGAVNQQWTRTAAGELRIYDNAKCMDANASGPGTRVTINSCNGGNSQKWTVNANGTVTNAASGRCIDTGGTADNAPVVVNTCTGGTSQT [ESM163]” returned a melting temperature of 58 C. In addition, the “purified protein yield per well” value in series [2] came to 96.4 µg. Moreover, the PET hydrolysis in series [3] (setting [4]), in series [3] (setting [5]), in series [3] (setting [6]), in series [3] (setting [7]), in series [3] (setting [16]) and in series [3] (setting [17]) was under 3 in each case. For the same sequence, the PET hydrolysis in series [3] (setting [18]) and in series [3] (setting [19]) was under 3 throughout.

Consider “DEIGQAPTASNITGNGSFATTSESISSLVSGFGGGRVYYPTATGRYPVIAISPGFTATWSSLAWIGPRLSSWGFVVVGIETNSIYDQPGSRGNQLLAALNWAVNSSSTAVRSRVDGSRRGVAGHSMGGGGTLEALAADTSGLVKAGVPLAPWNTDKIWSNVSEPVLIVGGQADTIAPVATHSVPFYNTLAGPKTYVELTGASHFFPQTTNATTSRALVSWFKRWLNQDSRFTPYTCGFGGLAVSDFRSNAC [ESM147]”, for which the melting temperature in series [1] amounted to 67.9 C. Moreover, the “purified protein yield per well” value in series [2] is 75.4 µg. Further, the PET hydrolysis was 11 in series [3] (setting [4]); 29 in series [3] (setting [5]); 31 in series [3] (setting [6]); 46 in series [3] (setting [7]); under 3 in series [3] (setting [16]); 22 in series [3] (setting [17]). Moreover, the PET hydrolysis came out at 42 in series [3] (setting [18]) and 81 in series [3] (setting [19]).

In turn, “ADNPYQRGPDPTRSSVAAVNGPFANTSVAVPTGYGFNGGRIYYPTDTSQGTFGAIAISPGYTALFSVELAWMGPWLASHGFVVIGIETNSRNDFDTARGTQLLAALDYLTQQSPVRDRVDPNRLAVSGHSMGGGGALSAAIRRSSLKAVVGIAPYSPSSNLANDRVPTMVFAGQADTVVTPSYATGLYNSLPATTESAYLEVAGADHGFMVGRSNPVLIRTMLPFLKMFVDNDARYSQFLCPLADNSGVVSYRSTCPLLPTTPTTPPPTPSDTPPPTPSGTPTTPPTTGPPGTASLVVGAQSGRCLDVPNASRANGTRVQLWDCNRQANQQWTYTSTRQLRVYGDMCLDAAGSGNGAAVQIYGCHGQPNQQWTVNANGTISGVQSGRCLDVWSTANGAQVQLYDCHGQTNQRFTLTPVA [ESM080]” came in with a melting temperature in series [1] of 61.6 C. Moreover, in series [2], the “purified protein yield per well” value was 56.6 µg. Further, the PET hydrolysis came to 9 in series [3] (setting [4]), 18 in series [3] (setting [5]), 9 in series [3] (setting [6]) and 4 in series [3] (setting [7]).
